This is an account of results in patent US11535650 (RA PHARMACEUTICALS, dated 2022).

Starred links: 1 amine or outer side, 2 acyl side, 3 side chain; linkers in the order of their positions; H or OH if unused. Positions of bridges follow the written chain, without caps; N, C: chain ends. Non-standard residues stand in square brackets, D forms with d. Primed or numbered codes have the meaning given here. No end group written: not given here. *: point of attachment. mXylyl(3) = bridging moiety between the two residues given in brackets; Phe(3-CH2NH2) = O=C([C@H](Cc1cccc(CN[*:3])c1)N[*:1])[*:2]; Trp(7-aza) = N[C@@H](Cc1c[nH]c2ncccc12)C(=O)O; mXylyl(4) = bridging moiety between residues; hPhe(3-Cl) = N[C@@H](CCc1cccc(Cl)c1)C(=O)O; ivDde = CC(C)CC(=C1C(=O)CC(C)(C)CC1=O)*; 2Nal = N[C@@H](Cc1ccc2ccccc2c1)C(=O)O; hPhe = N[C@@H](CCc1ccccc1)C(=O)O; NMeD = CN[C@@H](CC(=O)O)C(=O)O; dChg = N[C@@H](C(=O)O)C1CCCCC1; Chg = N[C@H](C(=O)O)C1CCCCC1; Phg = N[C@H](C(=O)O)c1ccccc1; Tle = CC(C)(C)[C@H](N)C(=O)O; NMeS = CN[C@@H](CO)C(=O)O; Ac5c = NC1(C(=O)O)CCCC1; Nva = CCC[C@H](N)C(=O)O; Thp = NC1(C(=O)O)CCOCC1; Aib = CC(C)(N)C(=O)O A value given as a limit tells only on which side of the number the result lay.

The chains are these.
B1: R3180 (peptide)
peptide: Ac-CVERFCD[Tle]Y[Trp(7-aza)]E[2Nal]P[Chg][Nva]
modifications: linker 1-6 via mXylyl(3)
B2: R3194 (peptide)
peptide: Ac-KVERFD[NMeD][Tle]Y[Trp(7-aza)]EYP[Chg]K(C16)-NH2
modifications: lactam 1-6
B3: R3185 (peptide)
peptide: Ac-CVERFC[Ac5c][Tle]Y[Trp(7-aza)]EYP[Chg][Nva]
modifications: linker 1-6 via mXylyl(3)
B4: R3198 (peptide)
peptide: [(desamino)Cys]VERFC[NMeD][Tle]Y[Trp(7-aza)]EYP[Chg]K(C16)
modifications: bridge 1-6
B5: R3196 (peptide)
peptide: Ac-KVERFD[NMeD][Tle]YWEYP[Chg]K
modifications: lactam 1-6
B6: R3179 (peptide)
peptide: Ac-CVERFCD[Tle]Y[Trp(7-aza)]E[hPhe(3-Cl)]P[Chg][Nva]
modifications: linker 1-6 via mXylyl(3)
B7: R3184 (peptide)
peptide: VERFCDGYWEYPGV
modifications: [cyclo-thioalkyl(1,5)]V-E-R-F-C-D-Tbg-Y-azaTrp-E-Y-P-Chg-Nvl
B8: R3181 (peptide)
peptide: Ac-CVERFCD[Tle]Y[Phe(3-CH2NH2)]EYP[Chg][Nva]
modifications: linker 1-6 via mXylyl(3)
B9: R3192 (peptide)
peptide: Ac-KVERFD[NMeD][Tle]Y[Trp(7-aza)]EYP[Chg]K-NH2
modifications: lactam 1-6
SMILES: CC(=O)N[C@H]1CCCCNC(=O)C[C@@H](C(=O)N(C)[C@@H](CC(=O)O)C(=O)N[C@H](C(=O)N[C@@H](Cc2ccc(O)cc2)C(=O)N[C@@H](Cc2c[nH]c3ncccc23)C(=O)N[C@@H](CCC(=O)O)C(=O)N[C@@H](Cc2ccc(O)cc2)C(=O)N2CCC[C@H]2C(=O)N[C@H](C(=O)N[C@@H](CCCCN)C(N)=O)C2CCCCC2)C(C)(C)C)NC(=O)[C@H](Cc2ccccc2)NC(=O)[C@H](CCCNC(=N)N)NC(=O)[C@H](CCC(=O)O)NC(=O)[C@H](C(C)C)NC1=O
B10: R3177 (peptide)
peptide: Ac-CVERFCD[Tle]Y[Trp(7-aza)]EWP[Chg][Nva]
modifications: linker 1-6 via mXylyl(3)
B11: R3186 (peptide)
peptide: Ac-CVERFC[Thp][Tle]Y[Trp(7-aza)]EYP[Chg][Nva]
modifications: linker 1-6 via mXylyl(3)
B12: R3197 (peptide)
peptide: Ac-KVERFD[NMeD][Tle]YWEYP[Chg]K(ivDde)
modifications: lactam 1-6
B13: R3199 (peptide)
peptide: [(desamino)Cys][dA]ERFC[NMeD][Tle]Y[Trp(7-aza)]EYP[Chg]K(C16)
modifications: bridge 1-6
B14: R3195 (peptide)
peptide: Ac-KVERFD[NMeD][Tle]YWEYP[Chg]K(C16)
modifications: lactam 1-6
B15: R3189 (peptide)
peptide: Ac-CAERFCD[Tle]Y[Trp(7-aza)]EYP[Phg]K(C16)
modifications: linker 1-6 via mXylyl(3)
B16: R3095 (peptide)
peptide: Ac-[Nva]C[Phg]T[Trp(7-aza)]E[hPhe][NMeS]AC[Nva]-NH2
modifications: linker 2-10 via mXylyl(4)
B17: R3096 (peptide)
peptide: Ac-[Nva]C[Phg][Aib][Trp(7-aza)]EY[NMeS]HC[Nva]-NH2
modifications: linker 2-10 via mXylyl(3)
B18: R3098 (peptide)
peptide: Ac-[Nva]C[Phg]T[Trp(7-aza)]QY[NMeS]AC[Nva]-NH2
modifications: linker 2-10 via mXylyl(4)
B19: R3093 (peptide)
peptide: Ac-[Nva]C[dChg]T[Trp(7-aza)]EY[NMeS]AC[Nva]-NH2
modifications: linker 2-10 via mXylyl(4)
B20: R3097 (peptide)
peptide: Ac-[Nva]C[Phg]T[Trp(7-aza)]DY[NMeS]AC[Nva]-NH2
modifications: linker 2-10 via mXylyl(4)
B21: R3100 (peptide)
peptide: Ac-[Nva]C[Phg]T[Trp(7-aza)]EF[NMeS]AC[Nva]-NH2
modifications: linker 2-10 via mXylyl(4)
B22: R3099 (peptide)
peptide: Ac-[Nva]C[Phg]T[Trp(7-aza)]NY[NMeS]AC[Nva]-NH2
modifications: linker 2-10 via mXylyl(4)
B23: R3089 (peptide)
peptide: Ac-[Chg]C[Phg]T[Trp(7-aza)]EY[NMeS]AC[Nva]-NH2
modifications: linker 2-10 via mXylyl(4)
B24: R3090 (peptide)
peptide: Ac-[Nva]CFT[Trp(7-aza)]EY[NMeS]AC[Nva]-NH2
modifications: linker 2-10 via mXylyl(4)
B25: R3091 (peptide)
peptide: Ac-[Nva]C[Phg]TWEY[NMeS]AC[Nva]-NH2
modifications: linker 2-10 via mXylyl(4)
B26: R3092 (peptide)
peptide: Ac-[Nva]C[Phg]TFEY[NMeS]AC[Nva]-NH2
modifications: linker 2-10 via mXylyl(4)

The target of the first assay is T1, human C5 protein (human, UniProt P01031 19-673; P01031 678-1676). Description: cell-based or functional assay.
Regarding B1, the “Avg. IC50, hemolysis assay (C5 depleted sera + purified human C5)” value (shortened to “Avg. IC50, hemolysis assay”) worked out at 29 nM.
With B2, the “Avg. IC50, hemolysis assay” value amounted to 15.5 nM.
Regarding B3, the “Avg. IC50, hemolysis assay” value stood at 12.5 nM.
Still for that read-out and setting: as for B4, the figure is 142 nM; as for B5, 3 nM; as for B6, 83 nM.
On the same count and under the same terms, as for B7, the figure is 4 nM; as for B8, 1500 nM.
On to B9, for which the “Avg. IC50, hemolysis assay” value is 1.5 nM.
On the same count and under the same terms, as for B10, the figure is 12 nM.
The same measure, in the same setting: the result for B11 reads 18 nM; that for B12, 4 nM; that for B13, 112 nM.
Take B14: the “Avg. IC50, hemolysis assay” value was found to be 62.5 nM.
As for B15, the “Avg. IC50, hemolysis assay” value turned out to be 81.5 nM.

Another assay deals with T1, human C5 protein. Description: cell-based or functional assay. The source holds these as a separate data set.
As to B16, the “Avg. IC50, human hemolysis assay (complete human sera)” value was greater than 50 µM.
Still for that read-out and setting: the result for B17 reads greater than 50 µM; that for B18, greater than 100 µM.
The same measure, in the same setting: the result for B19 reads greater than 100 µM; that for B20, greater than 100 µM.
Same read-out and setting: the result for B21 reads 0.626 µM.
Consider B22, for which the “Avg. IC50, human hemolysis assay (complete human sera)” value was greater than 100 µM.
Still for that read-out and setting: the result for B23 reads greater than 15 µM; that for B24, greater than 100 µM; that for B25, 0.483 µM.
Same read-out and setting: the result for B26 reads greater than 50 µM.
